{"source": "patent US9125872B2", "about": "“Polyethylene glycol aerogels for targeted delivery of pharmaceutical drubs” (priority 2009, dated 2015)", "type_in_all_cases": "physicochemical", "key": {"[1]": {"test": "Drug loading and biologics encapsulation in PEG aerogel granules", "procedure": "To 1 gram PEG [MW=2,000,000] dissolved in 100 ml anhydrous toluene, 100 mg [0.1 gram] BSA powder is dispersed and the mixture was stirred at 38-45° C. for 30-60 minutes to allow coating/adsorption of soluble PEG molecules on solid BSA particles. 0.2 g benzoyl peroxide was heated in 15 ml anhydrous toluene at 85° C. for 10 minutes. After cooling to 76° C., the catalyst solution was added to the warm PEG-BSA suspension at 38° C., which raised the temperature to 43° C., and mixing was continued for 15 minutes. The solution was poured into a mold and stored in a glove box. Toluene was later removed from the gel by solvent extraction with supercritical carbon dioxide fluid to obtain dry solid aerogel encapsulating BSA fine particles.\n5 ml (=2.6 g) granules from PEG aerogel #2 (2009 cold preparation) were desiccated overnight to remove any absorbed vapors during storage.\nGemzar [Eli Lilly, Indiana] solution was made by dissolving 200 mg Gemcitabine HCl in 5 ml 0.9% NaCl [sodium chloride] aqueous solution. 2.3 ml (0.61 g) PEG aerogel #1 [“hot” preparation, 2009] granules were desiccated overnight to remove any absorbed vapors during storage. […] The mixture was placed in a desiccator to remove excess water and render dry loaded aerogel granules.\nBSA protein (MW=66,000) was used as an example of large biologic molecules to be encapsulated in PEG aerogel during the gelation process. The encapsulation method is described in the aerogel preparation section."}, "[2]": {"test": "Sequential time release of BSA encapsulated in PEG aerogel in distilled water (UV-spectroscopy)", "settings": "room temperature", "procedure": "As an example of encapsulation and release of pharmaceutical biologics, release tests conducted using one sample weighing 13 mg PEG aerogel encapsulating 1 mg BSA protein in 10 ml distilled water at room temperature. Small solution samples were withdrawn at indicated time intervals above for BSA analysis with UV-spectroscopy at 280 and 260 nm wavelength. Results are calculated and tabulated."}, "[3]": {"test": "Solubility of purified solid protein-PEG conjugates in water"}, "[4]": {"settings": "of the PEG aerogel granules carrying the drug/biologic"}}}
{"substance": "bovine serum albumin [BSA Protein]", "values": [{"measurement": "Aerogel Density", "setting": "[1]; [4]", "result": 0.30, "unit": "g/cc"}, {"measurement": "Aerogel Porosity", "setting": "[1]; [4]", "result": 75, "unit": "% vol %"}, {"measurement": "Loading/Encapsulation", "setting": "[1]; weight of solution (or BSA) per g PEG aerogel", "result": 77, "unit": "mg/g Aerogel"}, {"measurement": "Loading/Encapsulation", "setting": "[1]; weight of solution (or BSA) per ml PEG aerogel", "result": 23, "unit": "mg/ml Aerogel"}, {"measurement": "Released BSA", "setting": "[2]; 15 minutes, 13 mg PEG aerogel with 1 mg BSA in 10 ml distilled water", "result": 0.19, "unit": "mg"}, {"measurement": "Cumulative Percent Release", "setting": "[2]; 15 minutes, distilled water", "result": "19 % of 1 mg"}, {"measurement": "Cumulative Release", "setting": "[2]; 15 minutes, distilled water", "result": 0.19, "unit": "mg"}, {"measurement": "Released BSA", "setting": "[2]; 3 hours (increment), distilled water", "result": 0.22, "unit": "mg"}, {"measurement": "Cumulative Percent Release", "setting": "[2]; 3 hours, distilled water", "result": "41 % of 1 mg"}, {"measurement": "Cumulative Release", "setting": "[2]; 3 hours, distilled water", "result": 0.41, "unit": "mg"}, {"measurement": "Released BSA", "setting": "[2]; 20 hours (increment), distilled water", "result": 0.26, "unit": "mg"}, {"measurement": "Cumulative Percent Release", "setting": "[2]; 20 hours, distilled water", "result": "67 % of 1 mg"}, {"measurement": "Cumulative Release", "setting": "[2]; 20 hours, distilled water", "result": 0.67, "unit": "mg"}]}
{"substance": "BSA-PEG: BSA surface-linked via EDC to PEG only aerogel", "values": [{"measurement": "Solubility in Water", "setting": "[3]; Body Temperature (37° C.)", "result": "No"}, {"measurement": "Solubility in Water", "setting": "[3]; Body Temperature (37° C.), listed as aerogel-BSA “conjugate”", "result": "water insoluble"}, {"measurement": "Solubility in Water", "setting": "[3]; Room Temperature (23° C.)", "result": "No"}]}
{"substance": "BSA-PEG-N: BSA linked to aerogel of PEG + Bis(3-aminopropyl) terminated PEG 1,500/2,100", "values": [{"measurement": "Solubility in Water", "setting": "[3]; Body Temperature (37° C.)", "result": "No"}, {"measurement": "Solubility in Water", "setting": "[3]; Room Temperature (23° C.)", "result": "No"}]}
{"substance": "BSA-PEG-O: BSA linked to aerogel of PEG + Diglycidylether terminated PEG, 1000", "values": [{"measurement": "Solubility in Water", "setting": "[3]; Body Temperature (37° C.)", "result": "No"}, {"measurement": "Solubility in Water", "setting": "[3]; Room Temperature (23° C.)", "result": "No"}]}
